In patent US20240417462A1 (SHANGHAI CELGEN BIO PHARMACEUTICAL, published 2024):
Where a chain is given by its changes, count along the chain named. “And” between values parts separate entries of the source, which are not always exact repeats. Equal entries are not always repeated.

T1: recombinant human TIGIT (Human TIGIT His, Sino Biological, 10917-H08H) (human, UniProt Q495A1 22-138)
T1 construct: range 1-138; bought; also called hTIGIT
T1 sequence (looked up): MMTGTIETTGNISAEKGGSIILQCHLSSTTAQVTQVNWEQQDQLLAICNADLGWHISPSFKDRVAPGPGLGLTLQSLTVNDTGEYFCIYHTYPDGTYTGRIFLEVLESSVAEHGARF

T2: full-length human TIGIT expressed on CHO-K cell membrane (CHO-K-TIGIT) (human, UniProt Q495A1 22-244)
T2 construct: whole, on cells; also called CHO-TIGIT; membrane TIGIT
T2 sequence (looked up): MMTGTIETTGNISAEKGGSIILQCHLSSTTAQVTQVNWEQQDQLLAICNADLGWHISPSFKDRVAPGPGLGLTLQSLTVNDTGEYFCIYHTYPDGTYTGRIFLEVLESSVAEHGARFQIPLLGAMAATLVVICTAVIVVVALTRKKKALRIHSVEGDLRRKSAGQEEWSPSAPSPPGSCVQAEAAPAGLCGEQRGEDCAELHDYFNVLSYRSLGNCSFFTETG

T3: mouse TIGIT antigen (mouse, UniProt P86176 29-148, limits assumed)
T3 construct: construct not described; also called murine TIGIT
T3 sequence (looked up): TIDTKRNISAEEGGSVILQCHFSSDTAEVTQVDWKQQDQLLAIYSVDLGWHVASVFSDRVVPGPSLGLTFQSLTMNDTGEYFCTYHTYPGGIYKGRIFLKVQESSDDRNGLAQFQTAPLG

B1: anti-human TIGIT mouse monoclonal antibody 7103-01 (antibody, V domains shown)
VH: QVQLQQPGAELVKPGASVKLSCKASGYTFISYNIYWVKQRPGQGLEWIGGVNPSNGNTNFNENFKSKATLTVDKSSSTAYMQLSSLTSDDSAVYFCTRGNYYGYEFAYWGQGTLVTVSA
VL: DIVMTQSHKFMSTSVGDRVSITCKASQHVSTAVAWYQQKPGQSPKLLIYSPSYRYTGVPDRFTGSGSGTDFTFTISSVQAEDLAVYYCQQHYSTPWTFGGGTKLEIK
notes: also called 31E10-2-1
B2: humanized anti-human TIGIT monoclonal antibody P04667 (antibody, V domains shown)
VH: EVQVVESGGGLVKPGGSLRLSCAASGFTFSTYAMSWVRQAPEQRLEWVAEISSGGSHTFYADTVKGRFTISRDNAKNTLYLQMNSLRAEDTAVYYCARKTLDYYALDYWGQGTTVTVSS
VL: DIQMTQSPSSVSASVGETITITCRASKSISKYLAWYQQKPGKAPKLLIYSGSRLQSGVPSRFSGSGSGTDFTLTISSLQPEDFATYYCQQHNEYPWTFGGGTKLEIK
B3: humanized anti-human TIGIT monoclonal antibody P04666 (antibody, V domains shown)
VH: B2 VH
VL: B2 VL with I2V, M4I, T22N
B4: Tiragolumab (antibody, V domains shown)
VH: EVQLQQSGPGLVKPSQTLSLTCAISGDSVSSNSAAWNWIRQSPSRGLEWLGKTYYRFKWYSDYAVSVKGRITINPDTSKNQFSLQLNSVTPEDTAVFYCTRESTTYDLLAGPFDYWGQGTLVTVSS
VL: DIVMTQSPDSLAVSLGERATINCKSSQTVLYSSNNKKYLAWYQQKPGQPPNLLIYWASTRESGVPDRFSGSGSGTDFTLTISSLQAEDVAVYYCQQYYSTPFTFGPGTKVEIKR
B5: anti-human TIGIT human mouse chimeric monoclonal antibody 7103-07 (hFc) (antibody, V domains shown)
VH: B2 VH with S17T, R19K, A40S, A61S, K65T, K76Q, Q82E, A88S, V93M, T114S
VL: DVQITQSPSYLAASPGETITINCRASKSISKYLAWYQEKPGKTNKLLIYSGSRLQSGIPSKFSGSGYGTDFTLTISSLEPEDFAMYYCQQHNEYPWTFGGGTKVEIK
notes: also called 7303-07 (hFc); human mouse chimeric antibody
B6: anti-human TIGIT human mouse chimeric monoclonal antibody 7103-06 (hFc) (antibody, V domains shown)
VH: EEQLVESGGGLVKPGGTLKLSCAASGFTFSTYAMSWVRQSPEKRLEWVAEISSGGSYTYYSDTVTGRFTISRDNAKNTLYLEMSSLRSEDTAMYYCARKTLDYYALDYWGHGTSVTVSS
VL: B5 VL with S26N, S28T, V104L
B7: anti-human TIGIT human mouse chimeric monoclonal antibody 7103-04 (hFc) (antibody, V domains shown)
VH: VQLQESGAELVKPGASVKLSCRASGYTFTDYFVYWVKQRPGQGLEWIGGINPSNGGATFNEKFKNKATLTVDTSSSTAYMQLSSLTSEDSAIYYCTRGNFYGYEFAYWGQGTLVTVSA
VL: B1 VL with M11I, A34V, S93I
B8: anti-human TIGIT human mouse chimeric monoclonal antibody 7103-01 (hFc) (antibody, V domains shown)
VH: B1 VH
VL: B1 VL
notes: also called 7301-01 (hFc)
B9: anti-human TIGIT human mouse chimeric monoclonal antibody 7103-03 (hFc) (antibody, V domains shown)
VH: EVQLQQSGPELVKPGASVKISCKTSGYTFTEYTMHWVKQSHGKSLEWIGGINPNNGGTSYNQKFKGKATLTVDKSSSTAYMELRSLTSEDSAVYYCARGAYYRYDFDYWGQGTTLTVSS
VL: B1 VL with H28D, S30R, A34V, P51A

biological target: T1, recombinant human TIGIT (Human TIGIT …); test: competition ELISA, coated TIGIT-His, CD155-Fc as competitor
Procedure: In order to evaluate the competition between the anti-human TIGIT mouse monoclonal antibody and CD155 (Human CD155 (Fc Tag): Sino Biological, 10109-H02H) for binding to recombinant human TIGIT (Human TIGIT(His), Sino Biological, 10917-H08H), ELISA detection was performed, and the specific steps were as follows:
Primary antibody incubation: the plate was washed twice with PBS (250 μl/well), and patched dry. 6 μg/ml of CD155 was respectively diluted in a binding solution and added into a 96-well dilution plate at 60 μl/well. Then the screened hybridoma antibody was diluted with the binding solution, (the highest concentration was 30 μg/ml), and diluted to 3 times of concentration, and added into the corresponding dilution plate above at 60 μl/well. After mixing well, the sample was added to the coated 96-well ELISA plate at 100 μl/well. The plate was sealed with a sealing film and placed at 37° C. for 1.5 hours.
Secondary antibody incubation: the blocking solution was discarded, the plate was washed with 250 μl PBST for 3 times, and patched dry.

| Binder | IC50 |
| --- | --- |
| B1 | 0.178 nM |

biological target: T1, recombinant human TIGIT (Human TIGIT …); test: competition ELISA on recombinant human TIGIT, CD155 as competitor

| Binder | IC50 |
| --- | --- |
| B2 | 0.631 nM |
| B3 | 0.127 nM |

biological target: T2, full-length human TIGIT expressed on …; test: flow cytometry, CHO-TIGIT cells

| Binder | EC50 |
| --- | --- |
| B4 | 1.36 nM and 3.84 nM and 1.72 nM |
| B5 | 1.35 nM and 0.927 nM |
| B6 | 0.873 nM |
| B1 | 0.499 nM |
| B7 | 0.867 nM |
| B8 | 1.08 nM |
| B9 | 0.596 nM |

biological target: T1, recombinant human TIGIT (Human TIGIT …); test: BLI, antibody captured on anti-human Fc probe, TIGIT-His in solution
Procedure: The dissociation constant (Kd) of the human mouse chimeric TIGIT monoclonal antibody was detected by using a GATORS (ProbeLife) detection instrument and an HFC (LOT #2007065 Tray 2), Human antibody Capture probe. The human mouse chimeric TIGIT monoclonal antibody was diluted to 30 nM in a binding buffer (Q buffer [PBS (10 mM PH7.4)+0.02% Tween 20+0.2% BSA]). The recombinant human TIGIT protein was diluted in Q buffer in a 2-fold gradient to different concentrations varying in the range of 40 nM to 10 nM. A kinetic correlation determination was initiated by placing an antibody capture sensor in the continuously diluted antigen solution described above. Octet Data Acquisition software was opened and New Kinetics Experiment-Basic Kinetics mode was selected.

| Binder | Kd | koff | kon |
| --- | --- | --- | --- |
| B5 | 1.72 nM | 0.00167 s⁻¹ | 971000 M⁻¹ s⁻¹ |
| B6 | 1.29 nM | 0.00139 s⁻¹ | 1.07e+06 M⁻¹ s⁻¹ |
| B7 | 0.661 nM | 0.000558 s⁻¹ | 845000 M⁻¹ s⁻¹ |
| B8 | 0.574 nM | 0.000405 s⁻¹ | 706000 M⁻¹ s⁻¹ |
| B9 | 1.14 nM | 0.00091 s⁻¹ | 801000 M⁻¹ s⁻¹ |

biological target: T4, recombinant cynomolgus monkey TIGIT (cynomolgus monkey, UniProt A0A7N9I9V4 89-209); test: ELISA, coated cynomolgus TIGIT
T4 construct: construct not described; also called cynomolgus TIGIT
Procedure: (§1) The cynomolgus monkey or mouse TIGIT antigen of was coated with the same method as above, the anti-human TIGIT mouse monoclonal antibody was diluted in gradient, and then the anti-mouse Fab secondary antibody was added (Jackson Immuno Research, 515-035-072) for TMB development. ELISA was used to detect the binding of 8 mouse monoclonal antibodies to recombinant cynomolgus monkey TIGIT.

T4 sequence (A0A7N9I9V4 entry or part of it): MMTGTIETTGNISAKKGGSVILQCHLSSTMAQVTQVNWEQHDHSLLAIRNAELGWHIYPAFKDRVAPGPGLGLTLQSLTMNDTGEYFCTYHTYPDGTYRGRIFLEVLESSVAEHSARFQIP

| Binder | EC50 |
| --- | --- |
| B1 | 1.07 nM |

biological target: T3, mouse TIGIT antigen; test: ELISA, coated mouse TIGIT
Procedure: as §1

| Binder | binding result |
| --- | --- |
| B1 | no binding |

biological target: T1, recombinant human TIGIT (Human TIGIT …); test: ELISA, recombinant human TIGIT (His) coated, anti-human-Fc-AP, OD405/490
Procedure: (§2) Antigen hTIGIT (Human TIGIT (His), Sino Biological, 10917-H08H) was diluted into 1 μg/mL with a NaHCO₃ solution of pH 9.6, 50 μl per well was added to a 96-well ELISA plate, and placed overnight in refrigerator at 4° C.
(§3) In order to determine whether the humanized TIGIT monoclonal antibody of the present disclosure could bind to the recombinant human TIGIT protein, in vitro testing was performed. Murine antibodies and Tiragolumab (Tira) were used as positive controls. The experimental method was the same as in Example 3.1.

| Binder | EC50 |
| --- | --- |
| B4 | 0.0806 mg/L |

biological target: T1, recombinant human TIGIT (Human TIGIT …); test: ELISA, coated human TIGIT-His

| Binder | EC50 |
| --- | --- |
| B6 | 0.554 nM |
| B1 | 0.0647 nM |
| B7 | 0.554 nM |
| B8 | 0.499 nM |
| B9 | 0.38 nM |

biological target: T1, recombinant human TIGIT (Human TIGIT …); test: competition ELISA, coated TIGIT-His, CD155-mFC as competitor
Procedure: Antigen TIGIT (Human TIGIT (His), Sino Biological, 10917-H08H) was diluted with pH 9.6 of NaHCO₃ solution into 1 μg/mL, 50 μL per well was added to a 96-well ELISA plate, and placed overnight at 4° C. in a refrigerator. The next day, after washing with PBS twice, plate was blocked with 3% BSA (100 μL per well) by incubating at 37° C. for 1.5 h, and washed 4 times with PBST.

| Binder | IC50 |
| --- | --- |
| B4 | 5.24 nM |
| B5 | 1.7 nM |
| B6 | 2.03 nM |
| B7 | 3.3 nM |
| B8 | 4.03 nM |
| B9 | 1.46 nM |

biological target: T1, recombinant human TIGIT (Human TIGIT …); test: BLI, antibody captured on anti-human Fc probe, TIGIT-His in solution; remark: another data set of the same source

| Binder | Kd | koff | kon |
| --- | --- | --- | --- |
| B8 | 1.73 nM | 0.000951 s⁻¹ | 549000 M⁻¹ s⁻¹ |

biological target: T1, recombinant human TIGIT (Human TIGIT …); test: competition ELISA, human TIGIT (His) coated, antibody titrated against fixed CD155, bound CD155 detected, OD450/655

| Binder | IC50 |
| --- | --- |
| B4 | 0.116 mg/L |
| B5 | 0.041 mg/L |
| B2 | 0.094 mg/L |
| B3 | 0.019 mg/L |

biological target: T1, recombinant human TIGIT (Human TIGIT …); test: BLI, antibody captured on anti-human Fc probe, TIGIT-His in solution; remark: another data set of the same source

| Binder | Kd | koff | kon |
| --- | --- | --- | --- |
| B5 | 2.96 nM | 0.00169 s⁻¹ | 573000 M⁻¹ s⁻¹ |
| B2 | 4.2 nM | 0.00565 s⁻¹ | 1.35e+06 M⁻¹ s⁻¹ |
| B3 | 2.19 nM | 0.00347 s⁻¹ | 1.59e+06 M⁻¹ s⁻¹ |

biological target: T4, recombinant cynomolgus monkey TIGIT; test: ELISA, recombinant cynomolgus TIGIT coated, anti-mouse Fab secondary antibody, TMB, OD450/655nm
Procedure: as §1

| Binder | EC50 |
| --- | --- |
| B1 | 0.16 mg/L |

biological target: T1, recombinant human TIGIT (Human TIGIT …); test: ELISA, recombinant human TIGIT (His) coated, anti-human-Fc-AP, OD405/490; remark: another data set of the same source
Procedure: as §2, §3

| Binder | EC50 |
| --- | --- |
| B4 | 0.0242 mg/L |
| B5 | 0.0095 mg/L |
| B2 | 0.0125 µg/mL and 0.0836 nM |
| B3 | 0.0137 µg/mL and 0.0915 nM |
